Test results: patent US20220017637A1 (Hoffmann-La Roche, published 2022)

B1: Molecule D: Her2 (trastuzumab CLC)-CD28 (SA_variant 8) 1+1 (bispecific antibody, human IgG1, kappa, L234A L235A)
heavy 1: not shown
light 1: QVQLVQSGAEVKKPGASVKVSCKASGYTFTSYYIHWVRQAPGQGLEWIGSIYPGNVQTNYNEKFKDRATLTVDTSISTAYMELSRLRSDDTAVYFCTRSHYGLDFNFDVWGQGTTVTVSSASVAAPSVFIFPPSDEQLKSGTASVVCLLNNFYPREAKVQWKVDNALQSGNSQESVTEQDSKDSTYSLSSTLTLSKADYEKHKVYACEVTHQGLSSPVTKSFNRGEC
heavy 2: not shown
light 2: DIQMTQSPSSLSASVGDRVTITCKASQDVSTAVAWYQQKPGKAPKLLIYSASFRYTGVPSRFSGSRSGTDFTLTISSLQPEDFATYYCQQHYTTPPTFGQGTKVEIKRTVAAPSVFIFPPSDRKLKSGTASVVCLLNNFYPREAKVQWKVDNALQSGNSQESVTEQDSKDSTYSLSSTLTLSKADYEKHKVYACEVTHQGLSSPVTKSFNRGEC
notes: huIgG1 PG-LALA CrossFab: VH/VL exchange in the CD28 Fab (knob), charged modifications in the Her2 Fab (hole); also called P1AF8338
B2: Molecule B: Her2 (pertuzumab CLC)-CD28 (SA_Variant 8) 1+1 format (bispecific antibody, human IgG1, kappa, L234A L235A)
heavy 1: not shown
light 1: B1 light 1
heavy 2: EVQLVESGGGLVQPGGSLRLSCAASGFTFNDYTMDWVRQAPGKGLEWVADVNPNSGGSIVNRRFKGRFTLSVDRSKNTLYLQMNSLRAEDTAVYYCARNLGPFFYFDYWGQGTLVTVSSASTKGPSVFPLAPSSKSTSGGTAALGCLVEDYFPEPVTVSWNSGALTSGVHTFPAVLQSSGLYSLSSVVTVPSSSLGTQTYICNVNHKPSNTKVDEKVEPKSCDKTHTCPPCPAPEAAGGPSVFLFPPKPKDTLMISRTPEVTCVVVDVSHEDPEVKFNWYVDGVEVHNAKTKPREEQYNSTYRVVSVLTVLHQDWLNGKEYKCKVSNKALGAPIEKTISKAKGQPREPQVCTLPPSRDELTKNQVSLSCAVKGFYPSDIAVEWESNGQPENNYKTTPPVLDSDGSFFLVSKLTVDKSRWQQGNVFSCSVMHEALHNHYTQKSLSLSP
light 2: B1 light 2
notes: huIgG1 PG-LALA CrossFab: VH/VL exchange in the CD28 Fab (knob), charged modifications in the Her2 Fab (hole); also called P1AF8305
B3: Molecule A: Her2 (pertuzumab CLC_WT)-CD28 (SA_Variant 8) 1+1 format (bispecific antibody, human IgG1, kappa, L234A L235A)
heavy 1: not shown
light 1: B1 light 1
heavy 2: not shown
light 2: B1 light 2
notes: only the Fc knob chain carries PG-LALA; also called P1AF6741; Her2-CD28 (P1AF6741)
B4: CD28(SA)_variant_26 (antibody, human IgG1, kappa, L234A L235A)
heavy: not shown
light: not shown
chain: DKTHTCPPCPAPEAAGGPSVFLFPPKPKDTLMISRTPEVTCVVVDVSHEDPEVKFNWYVDGVEVHNAKTKPREEQYNSTYRVVSVLTVLHQDWLNGKEYKCKVSNKALGAPIEKTISKAKGQPREPQVCTLPPSRDELTKNQVSLSCAVKGFYPSDIAVEWESNGQPENNYKTTPPVLDSDGSFFLVSKLTVDKSRWQQGNVFSCSVMHEALHNRFTQKSLSLSP
notes: tested from HEK supernatant, unpurified; also called P1AE3082
B5: CD28(SA)_variant_27 (antibody, human IgG1, kappa, L234A L235A)
heavy: not shown
light: not shown
chain: B4 chain
notes: tested from HEK supernatant, unpurified; also called P1AE3083
B6: CD28(SA)_variant_25 (antibody, human IgG1, kappa, L234A L235A)
heavy: not shown
light: not shown
chain: B4 chain
notes: tested from HEK supernatant, unpurified; also called P1AE3081
B7: CD28(SA)_variant_31 (antibody, human IgG1, kappa, L234A L235A)
heavy: not shown
light: not shown
chain: B4 chain
notes: tested from HEK supernatant, unpurified; also called P1AE3087
B8: CD28(SA)_variant_30 (antibody, human IgG1, kappa, L234A L235A)
heavy: not shown
light: DIQMTQSPSSLSASVGDRVTITCRASQNIYVWLNWYQQKPGKAPKLLIYKASNLYSGVPSRFSGSRSGTDFTLTISSLQPEDFATYYCQQGQTYPYTFGQGTKLEIKRTVAAPSVFIFPPSDRKLKSGTASVVCLLNNFYPREAKVQWKVDNALQSGNSQESVTEQDSKDSTYSLSSTLTLSKADYEKHKVYACEVTHQGLSSPVTKSFNRGEC
chain: B4 chain
notes: tested from HEK supernatant, unpurified; also called P1AE3086
B9: CD28(SA)_variant_29 (antibody, human IgG1, kappa, L234A L235A)
heavy: not shown
light: not shown
chain: B4 chain
notes: tested from HEK supernatant, unpurified; also called P1AE3085
B10: CD28(SA)_variant_15 (antibody, human IgG1, kappa, L234A L235A)
heavy: not shown
light: not shown
chain: B4 chain
notes: tested from HEK supernatant, unpurified; also called P1AE3071
B11: CD28(SA)_variant_12 (antibody, human IgG1, kappa, L234A L235A)
heavy: not shown
light: B8 light
chain: B4 chain
notes: tested from HEK supernatant, unpurified; also called P1AE3068
B12: CD28(SA)_variant_16 (antibody, human IgG1, kappa, L234A L235A)
heavy: not shown
light: not shown
chain: B4 chain
notes: tested from HEK supernatant, unpurified; also called P1AE3072
B13: CD28(SA)_variant_13 (antibody, human IgG1, kappa, L234A L235A)
heavy: not shown
light: not shown
chain: B4 chain
notes: tested from HEK supernatant, unpurified; also called P1AE3069
B14: CD28(SA)_variant_17 (antibody, human IgG1, kappa, L234A L235A)
heavy: not shown
light: not shown
chain: B4 chain
notes: tested from HEK supernatant, unpurified; also called P1AE3073

Each binder was assayed against T1, human CD28 on CHO cells (parental cell line CHO-k1 ATCC #CCL-61, modified to stably overexpress human CD28) (human, UniProt P10747 19-220) (assay: flow cytometry (MFI PE); panel title on the sheet: Binding to human CD28, CHO-k1-huCD28; R-PE F(ab')2 goat anti-human IgG Fcgamma secondary).
T1 construct: The whole entry (with signal peptide) is named; also called CHOk1-huCD28; CHOk1 huCD28

Row | binding result | Binder
1 | binds | B1
2 | binds | B2

What follows are binders tested against T2, Her2 expressed on the cell surface of the human breast cancer cell line KPL-4 (human, UniProt P04626 23-1255) (assay: flow cytometry (MFI PE) on KPL-4 cells; R-PE F(ab')2 goat anti-human IgG Fcgamma secondary).
T2 construct: endogenous Her2 of KPL-4 cells stood in the assay; also called ErbB2; human epidermal growth factor receptor-2

Row | EC50 (read off the curve) [nM] | Binder
3 | 6 to 7 | B3

These binders were tested against T1, human CD28 on CHO cells (parental cell …) (assay: flow cytometry (MFI PE) on CHOk1-huCD28 cells; R-PE F(ab')2 goat anti-human IgG Fcgamma secondary).

Row | binding result | Binder
4 | binds | B3

The binders below were run against T1, human CD28 on CHO cells (parental cell …) (assay: flow cytometry (MFI PE), one-armed IgG from supernatant on CHO-k1 cells stably overexpressing human CD28; PE-conjugated goat anti-human secondary).

Row | binding result | Binder
5 | binds | B4
6 | binds | B5
7 | binds | B6
8 | binds | B7
9 | binds | B8
10 | binds | B9

The binders below were run against T2, Her2 expressed on the cell surface of … (assay: flow cytometry (MFI PE); panel title on the sheet: Binding to human Her2, KPL4; R-PE F(ab')2 goat anti-human IgG Fcgamma secondary).

Row | EC50 (read off the curve) [nM] | Binder
11 | ~3 | B3
12 | ~3 | B1
13 | ~3 | B2

Target: T1, human CD28 on CHO cells (parental cell …)
Test: flow cytometry (MFI PE), one-armed IgG from supernatant on CHO-k1 cells stably overexpressing human CD28; PE-conjugated goat anti-human secondary
Remark: another data set of the same source

Row | binding result | Binder
14 | binds | B10
15 | binds | B11
16 | binds | B12
17 | binds | B13
18 | binds | B14
